# Tests used:
# HeLa Kyoto [1] = experiment: solubility in G1/S (NP-40 vs SDS abundance) (log2 ratio); higher = more soluble; conditions: cell cycle stage: G1/S
# HeLa Kyoto [2] = experiment: melting temperature (median over replicates), in situ; higher = more thermally stable
# HeLa Kyoto [3] = experiment: solubility change mitosis vs G1/S (difference of NP-40 vs SDS log2 ratios) (log2 ratio difference); higher = more soluble in mitosis
# HeLa Kyoto [4] = experiment: thermal stability score vs G1/S (z-score of summed log2 fold changes over temperatures); higher = more thermally stable than in G1/S
# [5] = cell cycle stage: early G1 (4.5 h after nocodazole release)
# 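For melting temperature (median over replicates), in situ in this document: HeLa Kyoto cells synchronized by double thymidine or nocodazole block, proteins quantified by TMT10plex mass spectrometry, three independent biological replicates.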
# 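For solubility change mitosis vs G1/S (difference of NP-40 vs SDS log2 ratios) in this document: synchronized HeLa Kyoto cells (double thymidine block for G1/S, nocodazole release for mitosis), protein amounts in NP-40 versus SDS lysates quantified by mass spectrometry, three biological replicates.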
# 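For solubility in G1/S (NP-40 vs SDS abundance) in this document: HeLa Kyoto cells arrested at G1/S by double thymidine block, proteins quantified by TMT10plex mass spectrometry in mild NP-40 versus SDS extracts, three biological replicates.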
# 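For thermal stability score vs G1/S (z-score of summed log2 fold changes over temperatures) in this document: synchronized HeLa Kyoto cells, proteins quantified by TMT10plex mass spectrometry, three biological replicates, mitosis taken 0.5 h after nocodazole release, G1/S directly after double thymidine block.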
Sequence,solubility in G1/S (log2) (HeLa Kyoto [1]),melting temperature (HeLa Kyoto [2]; cell cycle stage: G1/S),melting temperature (HeLa Kyoto [2]; cell cycle stage: mitosis),solubility change mitosis (log2) (HeLa Kyoto [3]),thermal stability score (HeLa Kyoto [4]; [5]),thermal stability score (HeLa Kyoto [4]; cell cycle stage: mitosis)
MAANMYRVGDYVYFENSSSNPYLIRRIEELNKTANGNVEAKVVCFYRRRDISSTLIALADKHATLSVCYKAGPGADNGEEGEIEEEMENPEMVDLPEKLKHQLRHRELFLSRQLESLPATHIRGKCSVTLLNETESLKSYLEREDFFFYSLVYDPQQKTLLADKGEIRVGNRYQADITDLLKEGEEDGRDQSRLETQVWEAHNPLTDKQIDQFLVVARSVGTFARALDCSSSVRQPSLHMSAAAASRDITLFHAMDTLHKNIYDISKAISALVPQGGPVLCRDEMEEWSASEANLFEEALEKYGKDFTDIQQDFLPWKSLTSIIEYYYMWKTTDRYVQQKRLKAAEAESKLKQVYIPNYNKPNPNQISVNNVKAGVVNGTGAPGQSPGAGRACESCYTTQSYQWYSWGPPNMQCRLCASCWTYWKKYGGLKMPTRLDGERPGPNRSNMSPHGLPARSSGSPKFAMKTRQAFYLHTTKLTRIARRLCREILRPWHAARHPYLPINSAAIKAECTARLPEASQSPLVLKQAVRKPLEAVLRYLETHPRPPKPDPVKSVSSVLSSLTPAKVAPVINNGSPTILGKRSYEQHNGVDGNMKKRLLMPSRGLANHGQARHMGPSRNLLLNGKSYPTKVRLIRGGSLPPVKRRRMNWIDAPDDVFYMATEETRKIRKLLSSSETKRAARRPYKPIALRQSQALPPRPPPPAPVNDEPIVIED [MTA1],-0.0863,49.1 °C,50.3 °C,-0.00553,1.08,2.79
MAANMYRVGDYVYFENSSSNPYLIRRIEELNKTASGNVEAKVVCFYRRRDISNTLIMLADKHAKEIEEESETTVEADLTDKQKHQLKHRELFLSRQYESLPATHIRGKCSVALLNETESVLSYLDKEDTFFYSLVYDPSLKTLLADKGEIRVGPRYQADIPEMLLEGESDEREQSKLEVKVWDPNSPLTDRQIDQFLVVARAVGTFARALDCSSSVRQPSLHMSAAAASRDITLFHAMDTLYRHSYDLSSAISVLVPLGGPVLCRDEMEEWSASEASLFEEALEKYGKDFNDIRQDFLPWKSLTSIIEYYYMWKTTDRYVQQKRLKAAEAESKLKQVYIPTYSKPNPNQISTSNGKPGAVNGAVGTTFQPQNPLLGRACESCYATQSHQWYSWGPPNMQCRLCAICWLYWKKYGGLKMPTQSEEEKLSPSPTTEDPRVRSHVSRQAMQGMPVRNTGSPKSAVKTRQAFFLHTTYFTKFARQVCKNTLRLRQAARRPFVAINYAAIRAEYADRHAELSGSPLKSKSTRKPLACIIGYLEIHPAKKPNVIRSTPSLQTPTTKRMLTTPNHTSLSILGKRNYSHHNGLDELTCCVSD [MTA3],-0.0389,49.3 °C,49.7 °C,-0.00121,0.944,4.09
MAANMYRVGDYVYFENSSSNPYLVRRIEELNKTANGNVEAKVVCLFRRRDISSSLNSLADSNAREFEEESKQPGVSEQQRHQLKHRELFLSRQFESLPATHIRGKCSVTLLNETDILSQYLEKEDCFFYSLVFDPVQKTLLADQGEIRVGCKYQAEIPDRLVEGESDNRNQQKMEMKVWDPDNPLTDRQIDQFLVVARAVGTFARALDCSSSIRQPSLHMSAAAASRDITLFHAMDTLQRNGYDLAKAMSTLVPQGGPVLCRDEMEEWSASEAMLFEEALEKYGKDFNDIRQDFLPWKSLASIVQFYYMWKTTDRYIQQKRLKAAEADSKLKQVYIPTYTKPNPNQIISVGSKPGMNGAGFQKGLTCESCHTTQSAQWYAWGPPNMQCRLCASCWIYWKKYGGLKTPTQLEGATRGTTEPHSRGHLSRPEAQSLSPYTTSANRAKLLAKNRQTFLLQTTKLTRLARRMCRDLLQPRRAARRPYAPINANAIKAECSIRLPKAAKTPLKIHPLVRLPLATIVKDLVAQAPLKPKTPRGTKTPINRNQLSQNRGLGGIMVKRAYETMAGAGVPFSANGRPLASGIRSSSQPAAKRQKLNPADAPNPVVFVATKDTRALRKALTHLEMRRAARRPNLPLKVKPTLIAVRPPVPLPAPSHPASTNEPIVLED [MTA2],-0.0629,48.4 °C,49.5 °C,-0.00514,0.686,5.69
MAANYSSTSTRREHVKVKTSSQPGFLERLSETSGGMFVGLMAFLLSFYLIFTNEGRALKTATSLAEGLSLVVSPDSIHSVAPENEGRLVHIIGALRTSKLLSDPNYGVHLPAVKLRRHVEMYQWVETEESREYTEDGQVKKETRYSYNTEWRSEIINSKNFDREIGHKNPSAMAVESFMATAPFVQIGRFFLSSGLIDKVDNFKSLSLSKLEDPHVDIIRRGDFFYHSENPKYPEVGDLRVSFSYAGLSGDDPDLGPAHVVTVIARQRGDQLVPFSTKSGDTLLLLHHGDFSAEEVFHRELRSNSMKTWGLRAAGWMAMFMGLNLMTRILYTLVDWFPVFRDLVNIGLKAFAFCVATSLTLLTVAAGWLFYRPLWALLIAGLALVPILVARTRVPAKKLE [TMEM43],-0.206,53.5 °C,53.1 °C,-0.244,3.06,4.18
MAAPAQQTTQPGGGKRKGKAQYVLAKRARRCDAGGPRQLEPGLQGILITCNMNERKCVEEAYSLLNEYGDDMYGPEKFTDKDQQPSGSEGEDDDAEAALKKEVGDIKASTEMRLRRFQSVESGANNVVFIRTLGIEPEKLVHHILQDMYKTKKKKTRVILRMLPISGTCKAFLEDMKKYAETFLEPWFKAPNKGTFQIVYKSRNNSHVNREEVIRELAGIVCTLNSENKVDLTNPQYTVVVEIIKAVCCLSVVKDYMLFRKYNLQEVVKSPKDPSQLNSKQGNGKEAKLESADKSDQNNTAEGKNNQQVPENTEELGQTKPTSNPQVVNEGGAKPELASQATEGSKSNENDFS [THUMPD1],0.555,53.7 °C,54.3 °C,-0.0115,0.34,2.04
MAAPEERDLTQEQTEKLLQFQDLTGIESMDQCRHTLEQHNWNIEAAVQDRLNEQEGVPSVFNPPPSRPLQVNTADHRIYSYVVSRPQPRGLLGWGYYLIMLPFRFTYYTILDIFRFALRFIRPDPRSRVTDPVGDIVSFMHSFEEKYGRAHPVFYQGTYSQALNDAKRELRFLLVYLHGDDHQDSDEFCRNTLCAPEVISLINTRMLFWACSTNKPEGYRVSQALRENTYPFLAMIMLKDRRMTVVGRLEGLIQPDDLINQLTFIMDANQTYLVSERLEREERNQTQVLRQQQDEAYLASLRADQEKERKKREERERKRRKEEEVQQQKLAEERRRQNLQEEKERKLECLPPEPSPDDPESVKIIFKLPNDSRVERRFHFSQSLTVIHDFLFSLKESPEKFQIEANFPRRVLPCIPSEEWPNPPTLQEAGLSHTEVLFVQDLTDE [FAF2],-0.0258,49.9 °C,50.4 °C,-0.13,2.25,3.16
MAAPEPLRPRLCRLVRGEQGYGFHLHGEKGRRGQFIRRVEPGSPAEAAALRAGDRLVEVNGVNVEGETHHQVVQRIKAVEGQTRLLVVDQETDEELRRRQLTCTEEMAQRGLPPAHDPWEPKPDWAHTGSHSSEAGKKDVSGPLRELRPRLCHLRKGPQGYGFNLHSDKSRPGQYIRSVDPGSPAARSGLRAQDRLIEVNGQNVEGLRHAEVVASIKAREDEARLLVVDPETDEHFKRLRVTPTEEHVEGPLPSPVTNGTSPAQLNGGSACSSRSDLPGSDKDTEDGSAWKQDPFQESGLHLSPTAAEAKEKARAMRVNKRAPQMDWNRKREIFSNF [SLC9A3R2],0.422,53.6 °C,54.2 °C,-0.0543,-1.69,-3.57
MAAPGSARRPLLLLLLLLLLGLMHCASAAMFMVKNGNGTACIMANFSAAFSVNYDTKSGPKNMTFDLPSDATVVLNRSSCGKENTSDPSLVIAFGRGHTLTLNFTRNATRYSVQLMSFVYNLSDTHLFPNASSKEIKTVESITDIRADIDKKYRCVSGTQVHMNNVTVTLHDATIQAYLSNSSFSRGETRCEQDRPSPTTAPPAPPSPSPSPVPKSPSVDKYNVSGTNGTCLLASMGLQLNLTYERKDNTTVTRLLNINPNKTSASGSCGAHLVTLELHSEGTTVLLFQFGMNASSSRFFLQGIQLNTILPDARDPAFKAANGSLRALQATVGNSYKCNAEEHVRVTKAFSVNIFKVWVQAFKVEGGQFGSVEECLLDENSMLIPIAVGGALAGLVLIVLIAYLVGRKRSHAGYQTI [LAMP1],0.0646,59.9 °C,61.1 °C,0.0596,-2.35,-3.71
MAAPLRIQSDWAQALRKDEGEAWLSCHPPGKPSLYGSLTCQGIGLDGIPEVTASEGFTVNEINKKSIHISCPKENASSKFLAPYTTFSRIHTKSITCLDISSRGGLGVSSSTDGTMKIWQASNGELRRVLEGHVFDVNCCRFFPSGLVVLSGGMDAQLKIWSAEDASCVVTFKGHKGGILDTAIVDRGRNVVSASRDGTARLWDCGRSACLGVLADCGSSINGVAVGAADNSINLGSPEQMPSEREVGTEAKMLLLAREDKKLQCLGLQSRQLVFLFIGSDAFNCCTFLSGFLLLAGTQDGNIYQLDVRSPRAPVQVIHRSGAPVLSLLSVRDGFIASQGDGSCFIVQQDLDYVTELTGADCDPVYKVATWEKQIYTCCRDGLVRRYQLSDL [PAAF1],-0.094,54 °C,53.9 °C,-0.218,-0.462,-0.84
MAAPMEVAVCTDSAAPMWSCIVWELHSGANLLTYRGGQAGPRGLALLNGEYLLAAQLGKNYISAWELQRKDQLQQKIMCPGPVTCLTASPNGLYVLAGVAESIHLWEVSTGNLLVILSRHYQDVSCLQFTGDSSHFISGGKDCLVLVWSLCSVLQADPSRIPAPRHVWSHHALPITDLHCGFGGPLARVATSSLDQTVKLWEVSSGELLLSVLFDVSIMAVTMDLAEHHMFCGGSEGSIFQVDLFTWPGQRERSFHPEQDAGKVFKGHRNQVTCLSVSTDGSVLLSGSHDETVRLWDVQSKQCIRTVALKGPVTNAAILLAPVSMLSSDFRPSLPLPHFNKHLLGAEHGDEPRHGGLTLRLGLHQQGSEPSYLDRTEQLQAVLCSTMEKSVLGGQDQLRVRVTELEDEVRNLRKINRDLFDFSTRFITRPAK [WDR18],-1.23,56.6 °C,54.1 °C,0.571,-1.8,-5.26
MAAPPGEYFSVGSQVSCRTCQEQRLQGEVVAFDYQSKMLALKCPSSSGKPNHADILLINLQYVSEVEIINDRTETPPPLASLNVSKLASKARTEKEEKLSQAYAISAGVSLEGQQLFQTIHKTIKDCKWQEKNIVVMEEVVITPPYQVENCKGKEGSALSHVRKIVEKHFRDVESQKILQRSQAQQPQKEAALSS [LSM12],-0.264,52.3 °C,52.3 °C,0.105,-0.688,-0.784
MAAPRPSPAISVSVSAPAFYAPQKKFGPVVAPKPKVNPFRPGDSEPPPAPGAQRAQMGRVGEIPPPPPEDFPLPPPPLAGDGDDAEGALGGAFPPPPPPIEESFPPAPLEEEIFPSPPPPPEEEGGPEAPIPPPPQPREKVSSIDLEIDSLSSLLDDMTKNDPFKARVSSGYVPPPVATPFSSKSSTKPAAGGTAPLPPWKSPSSSQPLPQVPAPAQSQTQFHVQPQPQPKPQVQLHVQSQTQPVSLANTQPRGPPASSPAPAPKFSPVTPKFTPVASKFSPGAPGGSGSQPNQKLGHPEALSAGTGSPQPPSFTYAQQREKPRVQEKQHPVPPPAQNQNQVRSPGAPGPLTLKEVEELEQLTQQLMQDMEHPQRQNVAVNELCGRCHQPLARAQPAVRALGQLFHIACFTCHQCAQQLQGQQFYSLEGAPYCEGCYTDTLEKCNTCGEPITDRMLRATGKAYHPHCFTCVVCARPLEGTSFIVDQANRPHCVPDYHKQYAPRCSVCSEPIMPEPGRDETVRVVALDKNFHMKCYKCEDCGKPLSIEADDNGCFPLDGHVLCRKCHTARAQT [ZYX],0.412,55.9 °C,65.5 °C,-0.128,-1.65,0.522
